Data as given in publication PMC10801580 (2024).

How the values were obtained:
[1] = biological target: T1, WT RBD-6xHis (receptor-binding domain of the SARS-CoV-2 spike protein) (SARS-CoV-2, UniProt P0DTC2); test: BLI
[2] = biological target: T1, WT RBD-6xHis (receptor-binding domain …); test: ELISA

B1: humanized 9-8F2-B11, VH3VL3 combination (antibody, V domains shown)
VH: QVQLVQSGAEVKKPGASVKVSCKASGFNIKETYVHWVRQAPGQGLEWMGRIDPAIGDSEYAQKFQGRVTMTRDTSISTAYMELSRLRSDDTAVYYCARTWGPFFDFWGQGTLVTVSS
VL: DIVMTQTPLSLSVTPGQPASISCKSSQSLLHSHGNTFLHWYLQKPGQSPQVLIYKVSSRFSGVPDRFSGSGSGTDFTLKISRVEAEDVGVYYCSQSTHVPYTFGQGTKLEIK
- Kd [1]: 2.26 nM

B2: murine 9-8F2-B11 (antibody, V domains shown)
VH: EVQLQQSGAELVKPGASVKLSCTASGFNIKETYVHWVKQRPEQGLEWIGRIDHAIGDSEYDPKFQGKATVTADTSSNTAYLQLSRLTSEDTAVYYCARTWGPFFDFWGQGTTVTVSS
VL: DVVMTQTPLSLPVSLGDQASISCRSSQSLVHSHGNTFLHWYLQKPGQSPKVLIYKVSSRFSGVPDRFSGSGAGTDFTLKISRVEAEDLGVYFCSQSTHVPYTFGGGTKLEIK
- Kd [1]: 0.913 nM
- EC50 [2]: 0.0137 ng/mL
